# Measured values: article PMC10787587
# How the values were obtained:
# Assay in all cases: SEC
# [1] = molecular target: human CYP11A1 (side-chain cleavage enzyme), N-terminally truncated and modified, C-terminally His-tagged (human) (UniProt P05108)
# [2] = molecular target: human CYP11B1 (11β-hydroxylase), N-terminally truncated and modified, C-terminally His-tagged (human) (UniProt P15538)
# [3] = molecular target: human CYP11B2 (aldosterone generating enzyme), N-terminally truncated and modified, C-terminally His-tagged (human) (UniProt P19099)
substance,measurement,setting,value
"human CYP11A1 (side-chain cleavage enzyme), N-terminally truncated and modified, C-terminally His-tagged (from UniProt P05108 40-521)",stoichiometry N,[1],4
"human CYP11B1 (11β-hydroxylase), N-terminally truncated and modified, C-terminally His-tagged (from UniProt P15538 25-503) (enzyme)",stoichiometry N,[2],4
"human CYP11B2 (aldosterone generating enzyme), N-terminally truncated and modified, C-terminally His-tagged (from UniProt P19099 25-503)",stoichiometry N,[3],4
